{"source": "patent US20060148059A1", "about": "“Salt tolerant l-myo-inositol 1-phosphate synthase and the process of obtaining the same” (priority 2002, published 2006)", "key": {"[1]": {"substrate": "O=P(O)(O)OC[C@H]1OC(O)[C@H](O)[C@@H](O)[C@@H]1O", "assay": "cells, lysate or membranes named", "settings": "Line-Weaver Burk analysis, pH 7.5"}, "[2]": {"substrate": "NC(=O)c1ccc[n+]([C@@H]2O[C@H](COP(=O)([O-])OP(=O)(O)OC[C@H]3O[C@@H](n4cnc5c(N)ncnc54)[C@H](O)[C@@H]3O)[C@@H](O)[C@H]2O)c1", "assay": "Km and Vmax of recombinant PINO1 (Biogel 0.5A purified, Line-Weaver Burk analysis)", "assay_type": "biochemical, Porteresia coarctata", "settings": "other: recombinant PINO1, expressed in E. coli BL21 (DE3), pH 7.5", "procedure": "(§1) The cDNA for RINO1 and PINO1 were subcloned into suitable cloning sites of the bacterial expression vector pET 20B (+). The resulting plasmids were introduced into the host strain E. coli BL-21 (DE3). The bacteria were grown in LB medium up to A600 of 0.5-absorbance unit and induced by 0.5 mM IPTG for 6 hours at 30° C. The bacteria were collected by centrifugation and lysed by sonication in a buffer containing 20 mM Tris-HCl, pH 7.5. 10 mM each of NH4Cl and ME, 2 mM PMSF. The lysed extracts were centrifuged and protein from both soluble and membrane fractions were analyzed by 10% SDS-PAGE according to Lammeli (Nature, 227, 660-605, 1970) followed by western blot for immunodetection. The separated proteins were blotted onto PVDF membrane and the blot was probed with rabbit anti L-myo-inositol 1-phosphate synthase antibody (1:500) raised against purified recombinant L-myo-inositol 1-phosphate synthase of Entamoeba (Lohia et al, Mol. Biochem. Parasitol. 98, 67-79, 1999) or purified cytosolic L myo-inositol 1-phosphate […] from Oryza leaves. Bound antibody was detected by the chemiluminiscence (kit from Amersham Life Sciences). […] The expressed RINO1 and PINO1 proteins were solubilized from the pellet fractions in solubilization buffer (8M urea, 0.5 M NaCl, 20 mM Tris-HCl pH 7.5, 10 mM ME, 2 mM PMSF) kept for 30 minutes at room temperature. […]"}, "[3]": {"substrate": "NC(=O)c1ccc[n+]([C@@H]2O[C@H](COP(=O)([O-])OP(=O)(O)OC[C@H]3O[C@@H](n4cnc5c(N)ncnc54)[C@H](O)[C@@H]3O)[C@@H](O)[C@H]2O)c1", "assay": "Km and Vmax of recombinant RINO1 (Biogel 0.5A purified, Line-Weaver Burk analysis)", "assay_type": "biochemical, Oryza sativa", "settings": "other: recombinant RINO1, expressed in E. coli BL21 (DE3), pH 7.5", "procedure": "as §1"}}, "data": [{"protein": "Porteresia coarctata L-myo-inositol 1-phosphate synthase PINO1, recombinant (GenBank AF 412340) (Oryza coarctata) (protein, homotrimer) MFIESFRVESPHVRYGAAEIESEYRYDTTELVHESHDGASRWVVRPKSVQYHFRTSTTVPKLGVMLVGWGGNNGSTLTAGVIASREGISWATKDKVQQANYYGSLTQASTIRVGSYNGEEIYAPFKSLLPMVNPDDLVFGGWDISNMNLADAMTRAKVLDIDLQKQLRPYMESWCLSLASMIPTSSPLTRDPARTMSSREPRRSRWGRSSKDIREFKENNKMDKAVVLWTANTERYNNCLCLGLMTNGKPSASVDRNQAEISPSTLYCHCLASLEGVRSITGALKKKSWPGIDDLAIKKKLPDPGGLIQKRGKPKKKTGLVDFLMGAGIKPTSIVSYNHLGNNDGTNLSAPQTFRSKEISKSSVVDDMVSSNAILYEPGEHPDHVVVIKYVPYVGDSKRAMDEYTSEIFMGGKNTIVLHNTCEDSLLAAPIILDLVLLAELSTRIQLKGEGEEKFHSFHPVATILSYLTKAPLVPPGTPVVNALAKQRAMLENIMRACVGLAPENNMILEYK", "values": [{"measurement": "Km", "setting": "[1]; other: recombinant PINO1, expressed in E. coli BL21 (DE3)", "result": 2500, "unit": "µM"}, {"measurement": "Km", "setting": "[2]", "result": 166, "unit": "µM"}]}, {"protein": "Oryza sativa L-myo-inositol 1-phosphate synthase RINO1, recombinant (GenBank AB012107) (Oryza sativa Japonica Group) (protein, homotrimer) MFIESFRVESPHVRYGAAEIESDYQYDTTELVHESHDGASRWIVRPKSVRYNFRTTTTVPKLGVMLVGWGGNNGSTLTAGVIANREGISWATKDKVQQANYYGSLTQASTIRVGSYNGEEIYAPFKSLLPMVNPDDLVFGGWDISNMNLADAMTRAKVLDIDLQKQLRPYMESMVPLPGIYDPDFIAANQGSRANNVIKGTKKEQMEQIIKDIREFKEKSKVDKVVVLWTANTERYSNVCVGLNDTMENLLASVDKNEAEISPSTLYAIACVMEGIPFINGSPQNTFVPGLIDLAIKNNCLIGGDDFKSGQTKMKSVLVDFLVGAGIKPTSIVSYNHLGNNDGMNLSAPQTFRSKEISKSNVVDDMVSSNAILYELGEHPDHVVVIKYVPYVGDSKRAMDEYTSEIFMGGKSTIVLHNTCEDSLLAAPIILDLVLLAELSTRIQLKAEGEEKFHSFHPVATILSYLTKAPLVPPGTPVVNALAKQRAMLENIMRACVGLAPENNMILEYK", "values": [{"measurement": "Km", "setting": "[1]; other: recombinant RINO1, expressed in E. coli BL21 (DE3)", "result": 3000, "unit": "µM"}, {"measurement": "Km", "setting": "[3]", "result": 188, "unit": "µM"}]}]}
